Target: the molecule itself
Test: AFM single-molecule force spectroscopy (AFM-SMFS); living WTT-CHO cells transfected with 1 µg of HA-GPCR vector, basal state, 37 °C; anti-HA antibody on the AFM tip pulls the HA-receptor out of the membrane; unfolding distances fitted by a Gaussian mixture (BIC) and each population assigned to an oligomeric state by the receptor's theoretical length

B1: HA-angiotensin II subtype 1a receptor (receptor, UniProt P25095 1-359, looked up)
chain: MALNSSAEDGIKRIQDDCPKAGRHSYIFVMIPTLYSIIFVVGIFGNSLVVIVIYFYMKLKTVASVFLLNLALADLCFLLTLPLWAVYTAMEYRWPFGNHLCKIASASVSFNLYASVFLLTCLSIDRYLAIVHPMKSRLRRTMLVAKVTCIIIWLMAGLASLPAVIHRNVYFIENTNITVCAFHYESRNSTLPIGLGLTKNILGFLFPFLIILTSYTLIWKALKKAYEIQKNKPRNDDIFRIIMAIVLFFFFSWVPHQIFTFLDVLIQLGVIHDCKISDIVDTAMPITICIAYFNNCLNPLFYGFLGKKFKKYFLQLLKYIPPKAKSHSSLSTKMSTLSYRPSDNMSSSAKKPASCFEVE
notes: angiotensin II subtype 1a receptor, family A GPCR; theoretical contour length of the HA-tagged receptor 147 nm at 0.4 nm per amino acid; The subtype name 1a points to a rodent receptor (rat P25095 or mouse P29754, both 359 residues); 147 nm (about 368 residues) fits 359 residues plus a 9-residue HA tag; also called HA-AT1a-R; AT1a-R; source: WTT-CHO cells, transiently transfected (1 µg vector); …
For B1, the “stoichiometry N” value was 2.

— paper PMC8913689, “Atomic force microscopy-single-molecule force spectroscopy unveils GPCR cell surface architecture” (Communications Biology, 2022)
